Where a SMILES comes first, the peptide text is derived from it. Bridges are numbered along the chain shown (N, C = ends). Where no end group is shown, it is not given here. The star is where a group is joined. CH3O(CH2CH2O)11CH2CH2CO = COCCOCCOCCOCCOCCOCCOCCOCCOCCOCCOCCOCCC(=O)*; PEG2K = PEG2K (polydispersed); PEG1K = polydispersed PEG1K
What was measured:
[1] = target: T1, NPR-B (Mus musculus, UniProt Q6VVW5); assay: stimulation of cGMP production in NIH3T3 cells; type: cell-based, murine; settings: normalized to cell number and cGMP production in the presence of 1 uM wtCNP22; for cGMP Response rel. to 1 uM CNP22, 10 nM: NIH3T3 cells exposed to 10 nM peptide; for cGMP Response rel. to 1 uM CNP22, 1 uM: NIH3T3 cells exposed to 1 uM peptide
T1 construct: Murine NIH3T3 cells express endogenously the CNP signaling receptor, NPR-B; endogenous in cells; host or cells: NIH3T3
T1 sequence (Q6VVW5 17-1047): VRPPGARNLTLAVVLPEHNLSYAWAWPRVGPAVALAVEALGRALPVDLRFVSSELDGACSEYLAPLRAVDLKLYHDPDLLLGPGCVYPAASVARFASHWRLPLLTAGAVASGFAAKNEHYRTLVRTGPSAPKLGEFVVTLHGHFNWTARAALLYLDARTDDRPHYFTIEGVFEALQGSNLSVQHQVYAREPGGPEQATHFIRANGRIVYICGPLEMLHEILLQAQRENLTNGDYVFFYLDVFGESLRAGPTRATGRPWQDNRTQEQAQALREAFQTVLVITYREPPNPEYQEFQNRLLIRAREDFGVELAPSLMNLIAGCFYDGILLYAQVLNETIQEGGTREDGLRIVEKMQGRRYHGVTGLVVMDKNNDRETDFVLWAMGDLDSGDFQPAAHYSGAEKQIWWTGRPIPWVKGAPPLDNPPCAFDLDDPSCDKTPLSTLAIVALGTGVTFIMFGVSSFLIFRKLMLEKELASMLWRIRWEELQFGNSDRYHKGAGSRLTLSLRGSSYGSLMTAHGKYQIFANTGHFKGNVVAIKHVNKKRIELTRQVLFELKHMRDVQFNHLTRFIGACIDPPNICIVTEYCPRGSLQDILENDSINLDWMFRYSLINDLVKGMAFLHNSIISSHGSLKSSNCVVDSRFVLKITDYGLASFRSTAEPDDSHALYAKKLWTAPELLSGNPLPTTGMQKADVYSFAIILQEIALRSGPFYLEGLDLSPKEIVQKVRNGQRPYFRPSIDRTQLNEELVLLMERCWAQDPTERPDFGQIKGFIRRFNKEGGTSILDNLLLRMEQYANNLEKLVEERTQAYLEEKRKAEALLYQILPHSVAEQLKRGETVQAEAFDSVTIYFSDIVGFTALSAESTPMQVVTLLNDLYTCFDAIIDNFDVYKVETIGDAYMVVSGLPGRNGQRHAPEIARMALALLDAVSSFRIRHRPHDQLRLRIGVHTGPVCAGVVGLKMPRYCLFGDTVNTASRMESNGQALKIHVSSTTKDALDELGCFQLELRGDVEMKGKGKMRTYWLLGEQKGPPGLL
Experimental: To determine the functional activity of CNP variants, the production of cGMP was measured in NIH3T3 cells exposed to the CNP variants. Murine NIH3T3 cells express endogenously the CNP signaling receptor, NPR-B, which shares 98% protein sequence identity with human NPR-B. NIH3T3 cells were cultured in high glucose Dulbecco's Modified Eagle Medium supplemented with 10% fetal calf serum and antibiotics at 37° C. with 5% CO2). Twenty four to 48 hours prior to signaling, cells were passaged to 12-well plates with a density of 2-5×10^5 cells per well at the time of the assay. CNP variants were resuspended in 1 mM HCl to a stock concentration of 1 mg/mL (455 uM for wtCNP22) and subsequently diluted to a 30 uM working stock solution with phosphate-buffered saline (PBS). Ten-fold serial dilutions were prepared in phosphate-buffered saline. Culture medium was removed from the cells and replaced with 0.4 mL PBS/Dulbecco's modified Eagle medium (50/50, v/v) containing 0.75 mM isobutylmethylxanine. Plates were incubated at 37° C., 5% CO2 for 15 minutes before addition of 0.2 mL CNP variant in PBS and continued incubation at 37° C. for 15 minutes. Reactions were stopped by the addition of 0.2 mL lysis buffer supplied with the CatchPoint cGMP assay kit (Molecular Devices), and cGMP production was determined with the CatchPoint cGMP Assay (Molecular Devices). All stimulation experiments were performed in duplicate.
Tables 1-4 summarize the ability of CNP variants having backbone or side chain modifications, amino acid substitutions, N-terminal amino acid extensions, and/or N-terminal PEGylation, respectively, to stimulate cGMP production in NIH3T3 cells. In all four tables, the values for cGMP production in NIH3T3 cells exposed to 10 nM or 1 uM CNP variant are normalized to cell number and cGMP production in the presence of 1 uM wtCNP22.

[2] = target: Recombinant human NEP (Homo sapiens, UniProt P08473); assay: in vitro NEP cleavage assay (disappearance of non-cleaved CNP variant)
Sequence of Recombinant human NEP (P08473 whole entry): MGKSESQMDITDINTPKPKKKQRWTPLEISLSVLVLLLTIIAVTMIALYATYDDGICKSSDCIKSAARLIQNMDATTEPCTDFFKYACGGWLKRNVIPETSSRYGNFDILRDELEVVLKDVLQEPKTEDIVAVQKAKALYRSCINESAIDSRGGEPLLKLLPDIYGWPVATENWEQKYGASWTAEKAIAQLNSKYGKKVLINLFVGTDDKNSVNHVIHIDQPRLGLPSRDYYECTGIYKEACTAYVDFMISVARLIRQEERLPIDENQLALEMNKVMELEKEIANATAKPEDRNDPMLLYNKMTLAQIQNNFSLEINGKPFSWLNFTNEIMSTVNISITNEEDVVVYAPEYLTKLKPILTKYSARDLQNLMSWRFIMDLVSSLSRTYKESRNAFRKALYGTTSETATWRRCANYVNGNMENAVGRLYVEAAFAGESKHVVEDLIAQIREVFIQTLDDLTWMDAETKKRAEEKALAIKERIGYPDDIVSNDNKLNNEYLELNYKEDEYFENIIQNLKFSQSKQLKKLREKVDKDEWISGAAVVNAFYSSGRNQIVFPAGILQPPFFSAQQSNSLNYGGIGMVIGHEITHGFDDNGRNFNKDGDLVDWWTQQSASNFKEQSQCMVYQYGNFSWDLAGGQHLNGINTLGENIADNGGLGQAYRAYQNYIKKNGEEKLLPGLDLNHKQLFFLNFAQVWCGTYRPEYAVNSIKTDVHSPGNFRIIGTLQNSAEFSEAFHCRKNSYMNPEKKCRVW
Experimental: To determine the effects of amino acid substitutions, amino acid extensions, backbone modifications, side chain modifications and PEGylation on the susceptibility of CNP variants to neutral endopeptidase (NEP) cleavage, peptide cleavage assays were carried out using an in vitro assay that monitored disappearance of the non-cleaved CNP variant.
Recombinant human NEP (1 ug/mL final concentration) was added to 100 uM CNP variant diluted in 0.1 M Tris, pH 7. The reaction mixture was incubated at 37° C. for various periods of time, and the reaction was quenched with EDTA (10 mM final) followed by heat denaturation. The reaction mixture was reduced and then the reaction products were analyzed using HPLC and mass spectroscopy. The half-life of the CNP variant was calculated based on the disappearance of intact CNP variant over time.

| Compound | resistance to NEP cleavage (in words) [2] | NEP Cleavage (t1/2, min) ([2]; pH 7) | further results |
| --- | --- | --- | --- |
| CC[C@H](C)[C@@H]1NC(=O)[C@H](CCCNC(=N)N)NC(=O)[C@H](CC(=O)O)NC(=O)[C@H](CC(C)C)NC(=O)[C@H](CCCCN)NC(=O)[C@H](CC(C)C)NC(=O)CNC(=O)[C@H](Cc2ccccc2)NC(=O)[C@@H](NC(=O)CNC(=O)[C@H](CCCNC(=N)N)NC(=O)[C@H](CO)NC(=O)[C@H](CC(C)C)NC(=O)CN)CSSC[C@@H](C(=O)O)NC(=O)CNC(=O)[C@H](CC(C)C)NC(=O)CNC(=O)[C@H](CO)NC(=O)[C@H](C(C)C)NC(=O)[C@H](CO)NC(=O)CNC1=O [Analog AG, CNP22, K4R, M17V] (H-GLSRGCFGLKLDRIGSVSGLGC-OH; disulfide 6-22) | – | – | cGMP Response rel. to 1 uM CNP22, 10 nM [1]: 10; cGMP Response rel. to 1 uM CNP22, 1 uM [1]: 65 |
| CC[C@H](C)[C@@H]1NC(=O)[C@H](CCCNC(=N)N)NC(=O)[C@H](CC(=O)O)NC(=O)[C@H](CC(C)C)NC(=O)[C@H](CCCCN)NC(=O)[C@H](CC(C)C)NC(=O)CNC(=O)[C@H](Cc2ccccc2)NC(=O)[C@@H](NC(=O)CNC(=O)[C@H](CCCCN)NC(=O)[C@H](CO)NC(=O)[C@H](CC(C)C)NC(=O)CNC(=O)[C@H](CCC(N)=O)NC(=O)[C@H](CCC(N)=O)NC(=O)[C@H](CC(N)=O)NC(=O)[C@H](C)NC(=O)CNC(=O)[C@H](Cc2c[nH]cn2)NC(=O)[C@@H]2CCCN2C(=O)[C@H](Cc2c[nH]cn2)NC(=O)[C@H](CCC(N)=O)NC(=O)[C@H](CCC(=O)O)NC(=O)[C@H](Cc2c[nH]cn2)NC(=O)[C@H](CO)NC(=O)[C@H](Cc2c[nH]cn2)NC(=O)[C@H](Cc2c[nH]cn2)NC(=O)CN)CSSC[C@@H](C(=O)O)NC(=O)CNC(=O)[C@H](CC(C)C)NC(=O)CNC(=O)[C@H](CO)NC(=O)[C@H](CCSC)NC(=O)[C@H](CO)NC(=O)CNC1=O [Analog CQ] (H-GHHSHEQHPHGANQQGLSKGCFGLKLDRIGSMSGLGC-OH; disulfide 21-37; N-terminus and C-terminus assumed) | – | – | cGMP Response rel. to 1 uM CNP22, 10 nM [1]: 16; cGMP Response rel. to 1 uM CNP22, 1 uM [1]: 95 |
| DLRVDTKSRAAWARLLQEHPNARKYKGANKKGLSKGCFGLKLDRIGSMSGLGC (disulfide 37-53) [Analog BM, reference compound] | resistant to NEP degradation | – | – |
| CC[C@H](C)[C@@H]1NC(=O)[C@H](CCCNC(=N)N)NC(=O)[C@H](CC(=O)O)NC(=O)[C@H](CC(C)C)NC(=O)[C@H](CCCCN)NC(=O)[C@H](CC(C)C)NC(=O)CNC(=O)[C@H](Cc2ccccc2)NC(=O)[C@@H](NC(=O)CNC(=O)[C@H](CCCNC(=N)N)NC(=O)[C@H](CO)NC(=O)[C@H](CC(C)C)NC(=O)CNC(=O)[C@@H](N)CCCNC(=N)N)CSSC[C@@H](C(=O)O)NC(=O)CNC(=O)[C@H](CC(C)C)NC(=O)CNC(=O)[C@H](CO)NC(=O)[C@H](CCSC)NC(=O)[C@H](CO)NC(=O)CNC1=O [Analog AZ] (H-RGLSRGCFGLKLDRIGSMSGLGC-OH; disulfide 7-23) | most resistant to NEP degradation | – | – |
| PEG1K-CNP22: CNP22 conjugated at the N-terminus to polydispersed PEG1K | – | >160 min | – |
| CC[C@H](C)[C@@H]1NC(=O)[C@H](CCCNC(=N)N)NC(=O)[C@H](CC(=O)O)NC(=O)[C@H](CC(C)C)NC(=O)[C@H](CCCCN)NC(=O)[C@H](CC(C)C)NC(=O)CNC(=O)[C@H](Cc2ccccc2)NC(=O)[C@@H](NC(=O)CNC(=O)[C@H](CCCNC(=N)N)NC(=O)[C@H](CO)NC(=O)[C@H](CC(C)C)NC(=O)CNC(=O)[C@H](CCCNC(=N)N)NC(=O)[C@@H]2CCCN2C(=O)[C@H](CC(N)=O)NC(=O)[C@H](C)NC(=O)CNC(=O)CCOCCOCCOCCOCCOCCOCCOCCOCCOCCOCCOCCOC)CSSC[C@@H](C(=O)O)NC(=O)CNC(=O)[C@H](CC(C)C)NC(=O)CNC(=O)[C@H](CO)NC(=O)[C@H](CCSC)NC(=O)[C@H](CO)NC(=O)CNC1=O [PEO12-GANPR-CNP22(K4R)] ({CH3O(CH2CH2O)11CH2CH2CO}-GANPRGLSRGCFGLKLDRIGSMSGLGC-OH; disulfide 11-27; C-terminus assumed) | same half-life as wtCNP22 | – | – |
| PEG1K-GANRR-CNP22(K4R): GANRR-CNP22, K4R (SEQ ID NO: 36) conjugated at the N-terminus to PEG1K (PEG1K-GANRRGLSRGCFGLKLDRIGSMSGLGC; not fully specified (bridges); ends and bridges not checked) | – | >160 min | – |
| PEG2K-CNP22: CNP22 conjugated at the N-terminus to polydispersed PEG2K | – | >>160 min | – |
| PEG2K-CNP22(K4G): CNP22 having a K4G substitution, N-terminal PEGylated with PEG2K (PEG2K-GLSGGCFGLKLDRIGSMSGLGC; not fully specified (bridges); ends and bridges not checked; UniProt P23582 105-126, looked up, variant K4G) | only slightly more resistant to NEP cleavage than CNP22 | – | – |
| CC[C@H](C)[C@@H]1NC(=O)[C@H](CCCNC(=N)N)NC(=O)[C@H](CC(=O)O)NC(=O)[C@H](CC(C)C)NC(=O)[C@H](CCCCN)NC(=O)[C@H](CC(C)C)NC(=O)CNC(=O)[C@H](Cc2ccccc2)NC(=O)[C@@H](NC(=O)CNC(=O)[C@H](CCCCN)NC(=O)[C@H](CO)NC(=O)[C@H](CC(C)C)NC(=O)CNC(=O)CCOCCOCCOCCOCCOCCOCCOCCOCCOCCOCCOCCOCCOCCOCCOCCOCCOCCOCCOCCOCCOCCOCCOCCOC)CSSC[C@@H](C(=O)O)NC(=O)CNC(=O)[C@H](CC(C)C)NC(=O)CNC(=O)[C@H](CO)NC(=O)[C@H](CCSC)NC(=O)[C@H](CO)NC(=O)CNC1=O [PEO24-CNP22] | resistant to NEP degradation over the assay period of 160 minutes | – | NEP Cleavage (t1/2, min) ([2]; 100 uM peptide, 1 ug/mL NEP, 0.1 M Tris pH 7, 37° C., adjusted t1/2, CNP22 normalized to 80 min): >>160 min |
